Measured values: IntAct's records for PubMed 29892012

B1: Vesicle transport protein USE1 (Homo sapiens), Q9NZ43 (parent)
chain: MAASRLELNLVRLLSRCEAMAAEKRDPDEWRLEKYVGALEDMLQALKVHASKPASEVINEYSWKVDFLKGMLQAEKLTSSSEKALANQFLAPGRVPTTARERVPATKTVHLQSRARYTSEMRSELLGTDSAEPEMDVRKRTGVAGSQPVSEKQLAAELDLVLQRHQNLQEKLAEEMLGLARSLKTNTLAAQSVIKKDNQTLSHSLKMADQNLEKLKTESERLEQHTQKSVNWLLWAMLIIVCFIFISMILFIRIMPKLK
B2: Vacuolar protein-sorting-associated protein 25 (Homo sapiens), Q9BRG1 (parent)
chain: MAMSFEWPWQYRFPPFFTLQPNVDTRQKQLAAWCSLVLSFCRLHKQSSMTVMEAQESPLFNNVKLQRKLPVESIQIVLEELRKKGNLEWLDKSKSSFLIMWRRPEEWGKLIYQWVSRSGQNNSVFTLYELTNGEDTEDEEFHGLDEATLLRALQALQQEHKAEIITVSDGRGVKFF
partner: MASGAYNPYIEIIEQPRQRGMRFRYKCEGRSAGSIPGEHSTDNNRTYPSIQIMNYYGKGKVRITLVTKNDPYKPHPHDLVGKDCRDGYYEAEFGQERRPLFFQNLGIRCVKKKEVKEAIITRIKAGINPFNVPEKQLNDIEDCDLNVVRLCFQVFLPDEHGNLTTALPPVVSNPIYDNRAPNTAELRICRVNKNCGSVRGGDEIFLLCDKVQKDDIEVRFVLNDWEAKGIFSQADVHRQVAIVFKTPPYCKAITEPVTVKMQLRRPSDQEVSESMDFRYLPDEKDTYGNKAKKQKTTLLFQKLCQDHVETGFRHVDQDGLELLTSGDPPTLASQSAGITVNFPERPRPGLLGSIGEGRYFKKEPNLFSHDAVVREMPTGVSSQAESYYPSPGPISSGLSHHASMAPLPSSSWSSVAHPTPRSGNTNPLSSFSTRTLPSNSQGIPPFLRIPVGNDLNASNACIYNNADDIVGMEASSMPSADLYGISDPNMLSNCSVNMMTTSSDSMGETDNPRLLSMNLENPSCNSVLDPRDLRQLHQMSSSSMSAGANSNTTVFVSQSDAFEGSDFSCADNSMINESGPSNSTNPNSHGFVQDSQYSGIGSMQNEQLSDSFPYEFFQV
B3: Casein kinase II subunit alpha (Homo sapiens), P68400 (parent)
chain: MSGPVPSRARVYTDVNTHRPREYWDYESHVVEWGNQDDYQLVRKLGRGKYSEVFEAINITNNEKVVVKILKPVKKKKIKREIKILENLRGGPNIITLADIVKDPVSRTPALVFEHVNNTDFKQLYQTLTDYDIRFYMYEILKALDYCHSMGIMHRDVKPHNVMIDHEHRKLRLIDWGLAEFYHPGQEYNVRVASRYFKGPELLVDYQMYDYSLDMWSLGCMLASMIFRKEPFFHGHDNYDQLVRIAKVLGTEDLYDYIDKYNIELDPRFNDILGRHSRKRWERFVHSENQHLVSPEALDFLDKLLRYDHQSRLTAREAMEHPYFYTVVKDQARMGSSSMPGGSTPVSSANMMSGISSVPTPSPLGPLAGSPVIAAANPLGMPVPAAAGAQQ
partner: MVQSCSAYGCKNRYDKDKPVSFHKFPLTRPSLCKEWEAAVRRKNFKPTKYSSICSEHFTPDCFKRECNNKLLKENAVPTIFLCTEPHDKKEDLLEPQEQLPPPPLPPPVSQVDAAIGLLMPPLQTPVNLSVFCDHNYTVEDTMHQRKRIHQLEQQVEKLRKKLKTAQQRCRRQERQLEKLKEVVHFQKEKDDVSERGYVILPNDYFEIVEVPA
B4: Cyclic AMP-dependent transcription factor ATF-4 (Homo sapiens), P18848 (parent)
chain: MTEMSFLSSEVLVGDLMSPFDQSGLGAEESLGLLDDYLEVAKHFKPHGFSSDKAKAGSSEWLAVDGLVSPSNNSKEDAFSGTDWMLEKMDLKEFDLDALLGIDDLETMPDDLLTTLDDTCDLFAPLVQETNKQPPQTVNPIGHLPESLTKPDQVAPFTFLQPLPLSPGVLSSTPDHSFSLELGSEVDITEGDRKPDYTAYVAMIPQCIKEEDTPSDNDSGICMSPESYLGSPQHSPSTRGSPNRSLPSPGVLCGSARPKPYDPPGEKMVAAKVKGEKLDKKLKKMEQNKTAATRYRQKKRAEQEALTGECKELEKKNEALKERADSLAKEIQYLKDLIEEVRKARGKKRVP

Variants of: B1
Conditions: with bscl2_human BSCL2, Q96G97
Chain of bscl2_human BSCL2, Q96G97 (Q96G97 whole entry): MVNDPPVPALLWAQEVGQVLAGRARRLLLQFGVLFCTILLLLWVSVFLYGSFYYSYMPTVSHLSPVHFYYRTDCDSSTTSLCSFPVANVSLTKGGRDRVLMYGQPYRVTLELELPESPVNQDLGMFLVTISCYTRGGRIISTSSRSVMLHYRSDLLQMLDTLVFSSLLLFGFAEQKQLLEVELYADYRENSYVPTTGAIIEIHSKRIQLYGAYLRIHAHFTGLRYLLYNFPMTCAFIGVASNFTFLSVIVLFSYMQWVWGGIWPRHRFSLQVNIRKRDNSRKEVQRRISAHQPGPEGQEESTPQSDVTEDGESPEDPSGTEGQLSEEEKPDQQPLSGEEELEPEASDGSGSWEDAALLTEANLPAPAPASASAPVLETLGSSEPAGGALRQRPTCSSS
T217M was tested, and the “effect of a mutation on the interaction” value was “with no effect”.

Variants of: B1
Conditions: with creb3_human CREB3, O43889
Chain of creb3_human CREB3, O43889 (O43889 whole entry): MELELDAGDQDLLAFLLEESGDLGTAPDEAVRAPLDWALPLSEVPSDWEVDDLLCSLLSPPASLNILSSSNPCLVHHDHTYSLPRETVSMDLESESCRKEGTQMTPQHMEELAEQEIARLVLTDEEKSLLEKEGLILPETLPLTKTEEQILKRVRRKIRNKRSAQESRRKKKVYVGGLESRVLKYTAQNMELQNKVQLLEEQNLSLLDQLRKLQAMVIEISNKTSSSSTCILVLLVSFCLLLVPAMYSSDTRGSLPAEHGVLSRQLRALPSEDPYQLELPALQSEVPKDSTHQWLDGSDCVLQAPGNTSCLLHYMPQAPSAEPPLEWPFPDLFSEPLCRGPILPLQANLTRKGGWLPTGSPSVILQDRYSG
T217M was tested, and the “effect of a mutation on the interaction” value was “with no effect”.

Variants of: B2
Conditions: with rel_human REL
P58Q was tested, and the “effect of a mutation on the interaction” value was “disrupting interaction strength”.

Variants of: B3
Conditions: with thap1_human THAP1, Q9NVV9
With K198R the “effect of a mutation on the interaction” value was “with no effect”.

Variants of: B4
Conditions: with cc106_human CCDC106, Q9BWC9
Chain of cc106_human CCDC106, Q9BWC9 (Q9BWC9 whole entry): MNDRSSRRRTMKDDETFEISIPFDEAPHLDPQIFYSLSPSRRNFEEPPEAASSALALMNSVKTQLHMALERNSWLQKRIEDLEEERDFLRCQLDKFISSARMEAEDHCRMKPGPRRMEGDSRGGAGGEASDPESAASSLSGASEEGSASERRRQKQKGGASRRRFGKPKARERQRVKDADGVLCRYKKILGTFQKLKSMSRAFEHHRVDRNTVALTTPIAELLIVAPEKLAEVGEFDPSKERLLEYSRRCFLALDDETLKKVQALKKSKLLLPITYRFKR
For L180F, the “effect of a mutation on the interaction” value was “with no effect”.

Variants of: B4
Conditions: with ldoc1_human LDOC1, O95751
Chain of ldoc1_human LDOC1, O95751 (O95751 whole entry): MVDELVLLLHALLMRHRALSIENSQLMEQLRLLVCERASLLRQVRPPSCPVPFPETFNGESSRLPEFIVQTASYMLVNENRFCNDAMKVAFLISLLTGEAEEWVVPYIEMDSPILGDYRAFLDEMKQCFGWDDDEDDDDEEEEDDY
L180F was tested, and the “effect of a mutation on the interaction” value was “with no effect”.

Variants of: B4
Conditions: with gps2_human GPS2, Q13227
Chain of gps2_human GPS2, Q13227 (Q13227 whole entry): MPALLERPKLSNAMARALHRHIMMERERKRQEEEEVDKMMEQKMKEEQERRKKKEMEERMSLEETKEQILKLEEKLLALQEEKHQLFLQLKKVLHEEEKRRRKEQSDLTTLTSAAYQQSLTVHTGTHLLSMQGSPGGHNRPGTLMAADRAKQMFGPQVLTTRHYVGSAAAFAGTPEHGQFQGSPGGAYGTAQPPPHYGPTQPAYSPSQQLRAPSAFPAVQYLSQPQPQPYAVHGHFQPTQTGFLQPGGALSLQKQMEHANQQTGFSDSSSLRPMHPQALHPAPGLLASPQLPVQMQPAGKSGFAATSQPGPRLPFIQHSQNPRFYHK
For L180F, the “effect of a mutation on the interaction” value was “with no effect”.

Variants of: B4
Conditions: with tthy_human TTR
With L180F the “effect of a mutation on the interaction” value was “with no effect”.

Variants of: B4
Conditions: with fbw1a_human BTRC
For L180F, the “effect of a mutation on the interaction” value was “with no effect”.
